Changes are numbered by the printed parent chain.
Tests used:
Assay in all cases: SPR
[1] = biological target: CD147 V61A
[2] = biological target: T1, CD147 K63A/D65A double mutant (human)
T1 chain: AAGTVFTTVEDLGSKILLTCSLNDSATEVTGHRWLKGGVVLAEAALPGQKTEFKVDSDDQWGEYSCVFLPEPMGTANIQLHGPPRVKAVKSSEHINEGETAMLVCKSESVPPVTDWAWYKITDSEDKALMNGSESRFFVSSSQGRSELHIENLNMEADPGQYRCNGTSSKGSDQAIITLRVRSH

[3] = biological target: T2, CD147 D65A (human)
T2 chain: T1 chain with A42K

[4] = biological target: T3, CD147 E64A (human)
T3 chain: T1 chain with A42K, E43A, A44D

[5] = biological target: T4, CD147 K63A (human)
T4 chain: T1 chain with A44D

[6] = biological target: T5, ectodomain of CD147 (CD147_(ecto)), wild type (human)
T5 chain: T1 chain with A42K, A44D

[7] = biological target: T6, CD147 L62A (human)
T6 chain: T1 chain with L41A, A42K, A44D

Kd [1]: 0.97 nM | Kd [2]: 115 nM | Kd [3]: 12.7 nM | Kd [4]: 7.07 nM | Kd [5]: 576 nM | Kd [6]: 0.566 nM | Kd [7]: 2.71 nM
B1: anti-CD147 mAb 5A12 (antibody, V domains shown)
VH: EVKLEESGGGLVQPGGSMKLSCVASGFTFSNYWMHWVRQSPEKGLEWVAEIRLKSINYATHYAESVKGRFTISRDDSKSSVYLQMNNLRTEDTGIYYCTSYDYEYWGQGTLITVSA
VL: NIVMTQSPKSMSMSVGERVTLSCKASEIVGTYVSWYQQKPEQSPKLLIYGASNRYTGVPDRFTGSGSATDFTLTISSVQAEDLADYHCGQSYSYPFTFGSGTKLEIK

From PMC6804595 (2018)
